Assay [1] has as its target Caco-2 cell membrane (P100) fractions. Kind of assay: ELISA on coated Caco-2 P100 fraction, anti-dansyl detection; assay 4, peptide at 25 µg/ml. A general note: ELISA stands for enzyme-linked immunosorbent assay.
Assay [2] shares this target. The assay can be described thus: ELISA on coated Caco-2 P100 fraction, anti-dansyl detection; assay 6, peptide at 25 µg/ml.
For assay [3] the target is unchanged. Kind of assay: ELISA on coated Caco-2 P100 fraction, anti-dansyl detection; assay 7, peptide at 25 µg/ml.
Assay [4] shares this target. The assay can be described thus: ELISA on coated Caco-2 P100 fraction, anti-dansyl detection; assay 5, peptide at 25 µg/ml.
Assay [5] has the same target. Kind of assay: ELISA on coated Caco-2 P100 fraction, anti-dansyl detection; assay 2, peptide at 50 µg/ml.
Assay [6] shares this target. Kind of assay: ELISA on coated Caco-2 P100 fraction, anti-dansyl detection; assay 3, peptide at 50 µg/ml.
Assay [7] has the same target. The assay can be described thus: ELISA on coated Caco-2 P100 fraction, anti-dansyl detection; assay 1, peptide at 20 µg/ml.
Assay [8] has the same target. The assay can be described thus: ELISA on coated Caco-2 P100 fraction, anti-dansyl detection; assay 8, peptide at 25 µg/ml.

Where no end group is shown, it is not given here. The star is where a group is joined. Dansyl = CN(C)c1cccc2c(S(=O)(=O)*)cccc12

On to K(Dansyl)PGDYNCCGNGNSTG (cysteine pairing not given here) [ZElan091, HAX42 14 mer fragment], for which the binding to P100 relative to ZElan021 (arbitrary value 1.00) stood at 2.02 in assay [1], 1.2 in assay [2], 0.85 in assay [3] and 1.37 in assay [4].
Consider K(Dansyl)SDHALGTNLRSDNAKEPGDYNCCGNGNSTGRKVFNRRRPSAIPT (cysteine pairing not given here) [ZElan021, full length HAX42], for which the binding to P100 relative to ZElan021 (arbitrary value 1.00) in assay [5] was found to be 1; in assay [6], 1; in assay [1], 1; in assay [2], 1; in assay [3] it was 1.14; in assay [4], 1. Besides, the binding to P100 relative to ZElan021 (arbitrary value 1.00) in assay [7] was found to be 1; in assay [8], 0.94.

(Values after patent US20090238886A1.)
